Reference: US20160039916A1 (MISFOLDING DIAGNOSTICS, published 2016)
Ends that are not written are not given here.

Biological target: T1, Peptide 13 (TSESGELHGLTTE) (also: biotinylated)
T1 construct: Lies on the D-strand of TTR
T1 peptide: TSESGELHGLTTE
Assay: indirect ELISA: biotinylated peptide 13 (TSESGELHGLTTE) captured on NeutrAvidin, antibody titrated, HRP secondary antibody, TMB, % max. binding, the axis is Log10 [Antibody] nM

B1: MFD108 (antibody, V domains shown)
VH: EVQLVESGGDLVKPGGSLKLSCAASGFTFSNYGMSWVRQTPDKRLEWVATITSGGSYTYYPDSVKGRFTISRDNAKNTLYLQMSSLKSEDTAMYYCARDGTAWFAYWGQGTLVTVSA
VL: DIQMTQTTSSLSASLGDRVTISCRASQDISNYLNWYQQKPDGTVKLLIYYTSRLHSGVPSRFSGSGSGTDYSLTISNLEEEDIATYFCQQGNTLRTFGGGTKLEIK
EC50: 0.247 nM
